# Laboratory results: article PMC3384007, “Crystal Structure of the VapBC Toxin–Antitoxin Complex from Shigella flexneri Reveals a Hetero-Octameric DNA-Binding Assembly” (Journal of Molecular Biology, 2011)
# Tests used:
# [1] = molecular target: the molecule itself; experiment: cross-linking; purified VapBC complex 1 mg/ml in 100 mM sodium borate pH 9.1 with dimethyl superimidate (DMSI), aliquots after 5-120 min, 15% Coomassie-stained SDS-PAGE
# [2] = molecular target: the molecule itself; experiment: crystal structure; His6-VapB:VapC complex, 7 mg/ml; crystals in 0.1 M Bis-Tris pH 5.5, 1 M ammonium sulfate, 0.5% (v/v) PEG 3350, 19 °C; 2.7 Å; four copies of each protein in the asymmetric unit (VapB4C4)
# [3] = molecular target: T1, VapBC complex (VapB:His6-VapC), hetero-octamer VapB4C4 (Shigella flexneri (plasmid pMYSH6000), UniProt O06663;O06662 1-75;1-132); experiment: EMSA; single shift, highest affinity site; 2.5 ng/ul VapBC, 0.1 mg/ml salmon sperm DNA; details: protein: recombinant; tags: His6 on VapC; chain copies: 4;4; label: 5'-32P on SF-EMSA2-f; blunt
# T1 sequence 1: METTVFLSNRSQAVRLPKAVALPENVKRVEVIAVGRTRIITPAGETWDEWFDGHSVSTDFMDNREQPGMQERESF
# T1 sequence 2: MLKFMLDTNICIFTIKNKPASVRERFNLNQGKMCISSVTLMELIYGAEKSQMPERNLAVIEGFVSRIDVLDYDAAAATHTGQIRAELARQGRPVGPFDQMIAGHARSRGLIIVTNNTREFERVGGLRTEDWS
Binder,stoichiometry N [1],stoichiometry N [2],binding result [3]
"Shigella flexneri VapB antitoxin (His6-VapB) (natural protein, UniProt O06663 1-75, looked up, VapB antitoxin of the vapBC locus of the Shigella flexneri 2a virulence plasmid pMYSH6000; gene optimized for expression; No cleavage of the tag is described; In the assembly four copies of VapB stand with four of VapC (VapB4C4)) METTVFLSNRSQAVRLPKAVALPENVKRVEVIAVGRTRIITPAGETWDEWFDGHSVSTDFMDNREQPGMQERESF",4,2,
"Shigella flexneri VapC toxin (MvpT) (natural protein, Untagged in this construct, purified through His6-VapB; also called PIN domain) MLKFMLDTNICIFTIKNKPASVRERFNLNQGKMCISSVTLMELIYGAEKSQMPERNLAVIEGFVSRIDVLDYDAAAATHTGQIRAELARQGRPVGPFDQMIAGHARSRGLIIVTNNTREFERVGGLRTEDWS",4,,
DNA III (dsDNA) DNA 1: ATAAACGTATATCCCTTTGACATATCCCGG DNA 2: CCGGGATATGTCAAAGGGATATACGTTTAT,,,binds
